Measured values taken from article PMC6781444.

Molecular target: 80S ribosome (rabbit (endogenous in reticulocyte lysate))
Experiment: co-sedimentation

fold reduction of cosedimentation against WT SR | Substance
> 2 fold | SRdR, SRαβΔTM with the RBR of SRα (residues 205–250) replaced with (GS)6 (from UniProt P08240;Q9Y5M8) (complex)
> 2 fold | SRdC, SRαβΔTM with the CBR of SRα (residues 129–176) replaced with (GS)6 (from UniProt P08240;Q9Y5M8) (complex)
